{
  "source": "paper doi:10.1101/813527",
  "key": {"[1]": {"molecular_target": "GFP-S14D S26D-SAP (phosphomimetic SAF-A SAP domain) (UniProt Q00839)", "assay": "EMSA"}, "[2]": {"molecular_target": "GFP-WT-SAP (SAF-A SAP domain) (UniProt Q00839)", "assay": "EMSA"}},
  "data": [
    {"sequence": "AATTCAGAAAATAATAAAATAAAACTAGCTATTTTATATTTTTTC (double strand) [AT-rich SAR DNA]", "values": [
      {"measurement": "Kd", "setting": "[1]", "value": "> 75", "unit": "µM"},
      {"measurement": "Kd", "setting": "[2]", "value": 16.5, "unit": "µM"}
    ]}
  ]
}
